# Measured values published in paper PMC12632274, “The PA2803-encoded PcrP exhibits a novel non-catalytic function and contributes to polymyxin B resistance in P. aeruginosa” (Journal of Bacteriology, 2025).
# B1: 6xHis-PcrP (PA2803), recombinant, purified from E. coli (natural protein)
# chain: MPSSDQLPRFTALLFGLSGGLVDFGARTLSLALLRSHPHSPAEHLRDASLLPFAEAQSFLLRRKPNKSERQRLEQALDEAAGEQAEAIAGAVALLESLDEQRIPYAWQDELPESVCQRLAAPLGRANALIPLAGARPWPAPDGCWQALARLGIERLDGCVLVSAQPRQLQAGLNAGLWTIGLAASGPSCGLSPADWDALGHTERDRLRADATLELYRLGVHSVIDHLGELQPCLHDLAVRRLKGEKP
# notes: PcrP (PA2803), Pseudomonas aeruginosa PAO1; cloned NdeI/EcoRI into pSKB3; No removal of the His tag is described; also called 6XHis-PA2803; pAAK001 construct; source: E. coli BL21(DE3), purified (Ni-NTA)
# Biological target: the molecule itself
# Assay: cross-linking; 50 µM purified PcrP with 0.02, 0.05, 0.1 and 0.2% glutaraldehyde, 2 min, 20 mM HEPES pH 7.8, 50 mM NaCl, 1% glycerol; stopped with Tris-HCl; 12% SDS-PAGE, Coomassie
protein,measurement,value
B1,stoichiometry N,2
